Columns and labels:
FGF19 protein [1] = target: T1, FGF19 protein (human, UniProt O95750 25-216, limits assumed); experiment: solid phase receptor binding assay, blocking: FGF19 binding to captured FGFR4-Fc with antibody titrated
T1 construct: 125I-labelled for the Scatchard analysis. 'Human' is stated for hu FGF-19-His and for the anti-human FGF19 antibodies, not in these assay descriptions; also called Fibroblast growth factor 19; [125I]FGF19
Experimental: (§1) Maxisorb 96 well plates were coated overnight at 4° C. with 50 μl of 2 μg/ml anti-human immunoglobulin Fcγ fragment specific antibody (Jackson Immunoresearch) and used to capture 1 μg/ml FGFR-Fc chimeric proteins (R & D Systems).

FGF19 protein [2] = target: T1, FGF19 protein; experiment: solid phase receptor binding assay: FGF19 binding to captured FGFR4-Fc with antibody present; solid phase receptor binding assay, blocking of FGF19 binding to FGFR4
Experimental: as §1

hu FGF-19-His [3] = target: T2, hu FGF-19-His (human, UniProt O95750 25-216, limits assumed); experiment: ELISA, FGF19-His captured on nickel plates, HRP anti-mouse IgG detection; ELISA binding EC50
T2 construct: Analyte in SPR; Construct limits and tag not described; not shown: His tag
Excerpt: (§2) Non-specific binding sites of HisGrab Nickel coated plates (Pierce) were saturated with PBS/3% BSA. […] The bound antibodies were detected using a HRP conjugated anti-mouse IgG (Jackson Immunoresearch) and the TMB peroxydase colorigenic substrate (KPL).

hu FGF-19-His [4] = target: T2, hu FGF-19-His; experiment: solid phase antibody binding assay: FGF19-His captured on nickel coated plates, HRP anti-mouse IgG
Excerpt: as §2

hu FGF-19-His [5] = target: T2, hu FGF-19-His; experiment: SPR, BIAcore-3000, antibody coupled to CM5 chip (~500 RU), FGF19-His injected 0.7-500 nM, 25 C, 1:1 Langmuir model
Experimental: Briefly, carboxymethylated dextran biosensor chips (CM5, BIAcore Inc.) were activated with N-ethyl-N′-(3-dimethylaminopropyl)-carbodiimide hydrochloride (EDC) and N-hydroxysuccinimide (NHS) according to the supplier's instructions. […] Next, 1M ethanolamine was injected to block unreacted groups. […] Association rates (kₒₙ) and dissociation rates (koff) were calculated using a simple one-to-one Langmuir binding model (BIAcore Evaluation Software version 3.2).

T2 sequence (O95750 25-216 limits assumed): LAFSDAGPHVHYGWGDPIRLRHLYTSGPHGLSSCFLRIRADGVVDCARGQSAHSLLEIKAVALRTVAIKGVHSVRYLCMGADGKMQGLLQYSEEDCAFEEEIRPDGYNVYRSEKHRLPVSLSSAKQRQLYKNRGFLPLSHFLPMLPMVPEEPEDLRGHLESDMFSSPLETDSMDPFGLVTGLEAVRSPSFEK
T1 sequence (O95750 25-216 limits assumed): as above

B1: mouse anti-human FGF19 monoclonal antibody 1A6 (antibody, V domains shown)
VH: QVQLKQSGPGLVQPSQSLSITCTVSGFSLTTYGVHWVRQSPGKGLEWLGVIWPGGGTDYNAAFISRLSITKDNSKSQVFFKMNSLLANDTAIYFCVRKEYANLYAMDYWGQGTLLTVSA
VL: DIKMTQSPSSMYASLGERVTIPCKASQDINSFLSWFQQKPGKSPKTLIYRANRLVDGVPSRFSGSGSGQDYSLTISSLEYEDMGIYYCLQYDEFPLTFGAGTKVEIKR
notes: Mouse hybridoma monoclonal antibody, purified from ascites on protein A-agarose; also called anti-FGF19 mab 1A6; anti-FGF19 Mab 1A6
- IC50 (read off the curve) (FGF19 protein [1]): ~0.5 µg/mL
- IC50 (FGF19 protein [2]): 3 nM
- EC50 (hu FGF-19-His [3]): 0.04 nM
- EC50 (read off the curve) (hu FGF-19-His [4]): ~0.03 µg/mL
- Kd (hu FGF-19-His [5]): < 0.009 nM

— patent publication US20070248604A1 (Genentech, published 2007)
